Holding throughout (assay): cross-linking
For test [1], the target named is PDI deletion mutant Δ222–302 (S. cerevisiae) (UniProt P17967).
Test [2] addresses PDI deletion mutant Δ252–277 (S. cerevisiae) (UniProt P17967).
Test [3] concerns the target PDI deletion mutant Δ222–302 (S. cerevisiae) (UniProt P17967). This is another data set of the same source.
Test [4] concerns the target Protein disulfide isomerase (PDI), wild type, S. cerevisiae (S. cerevisiae) (UniProt P17967).
In test [5] the target is BiP, heavy chain binding protein (S. cerevisiae (endogenous in yeast microsomes)) (UniProt P16474).
BiP, heavy chain binding protein (S. cerevisiae (endogenous in yeast microsomes)), sequence (P16474 43-682): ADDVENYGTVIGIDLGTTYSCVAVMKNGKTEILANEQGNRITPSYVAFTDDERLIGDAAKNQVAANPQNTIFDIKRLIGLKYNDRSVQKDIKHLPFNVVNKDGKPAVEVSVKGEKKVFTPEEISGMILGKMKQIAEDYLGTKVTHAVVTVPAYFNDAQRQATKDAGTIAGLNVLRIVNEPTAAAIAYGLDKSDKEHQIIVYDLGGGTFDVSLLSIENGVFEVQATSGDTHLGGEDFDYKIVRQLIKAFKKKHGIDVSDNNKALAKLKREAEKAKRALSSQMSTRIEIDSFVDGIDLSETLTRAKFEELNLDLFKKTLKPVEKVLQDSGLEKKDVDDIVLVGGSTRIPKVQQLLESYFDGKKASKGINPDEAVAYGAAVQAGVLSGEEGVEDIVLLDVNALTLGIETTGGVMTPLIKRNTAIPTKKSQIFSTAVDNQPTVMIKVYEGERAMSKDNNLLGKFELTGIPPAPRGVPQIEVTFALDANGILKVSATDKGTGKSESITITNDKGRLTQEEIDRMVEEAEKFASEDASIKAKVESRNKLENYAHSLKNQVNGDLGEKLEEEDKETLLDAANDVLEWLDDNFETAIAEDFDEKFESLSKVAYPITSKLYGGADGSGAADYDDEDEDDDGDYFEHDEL

Read-outs that look alike come from different tables or passages of the source.

As for “N-benzoyl-NYT-amide, synthetic glycosylation acceptor peptide”, the peptide binding, percent of wild-type (% of wild-type) in test [1] is 14; in test [2], 38; in test [3], 13.
Substance “gpαf, glycopro-α factor (wild type) (natural protein)” showed a fold lower intensity of the cross-linking product than that with Δgpαf in test [4] of 8 fold.
For orientation: stoichiometry N means a count of units in the complex or per binding partner. In the case of “Δgpαf, mutant glycosylation site-free pro-α factor (natural protein)”, in test [4], the percent of the Δgpαf in the sample cross-linked to PDI was found to be 7% and the stoichiometry N was 1. In addition, in test [5], the percent of the Δgpαf in the sample cross-linked to BiP was 10%, the Δgpαf bound to BiP in sec61-32 microsomes relative to wild-type microsomes came to 2.1 fold and the Δgpαf bound to BiP in sec61-41 microsomes relative to wild-type microsomes amounted to 1.3 fold. Besides, in test [1], the fold lower affinity than wild-type PDI was 5 fold and the intensity of the cross-linking product, percent of wild-type (% of wild-type) was 43. In test [2], this substance had a fold lower affinity than wild-type PDI of 9 fold and an intensity of the cross-linking product, percent of wild-type (% of wild-type) of 24.

The record behind these values is paper PMC2174254.
